Experimental findings from PMC12329595, “Engineered bacteriophytochrome heterodimers for research and applications” (The Journal of Biological Chemistry, 2025) are described below.

The chains are these.
B1: DrBphPRR (full-length DrBphP E148R/E306R) (natural protein)
chain: MSRDPLPFFPPLYLGGPEITTENCEREPIHIPGSIQPHGALLTADGHSGEVLQMSLNAATFLGQEPTVLRGQTLAALLPEQWPALQAALPPGCPDALQYRATLDWPAAGHLSLTVHRVGELLILEFEPTEAWDSTGPHALRNAMFALRSAPNLRALAEVATQTVRELTGFDRVMLYKFAPDATGEVIAEARREGLHAFLGHRFPASDIPAQARALYTRHLLRLTADTRAAAVPLDPVLNPQTNAPTPLGGAVLRATSPMHMQYLRNMGVGSSLSVSVVVGGQLWGLIACHHQTPYVLPPDLRTTLRYLGRLLSLQVQVKEAADVAAFRQSLREHHARVALAAAHSLSPHDTLSDPALDLLGLMRAGGLILRFEGRWQTLGEVPPAPAVDALLAWLETQPGALVQTDALGQLWPAGADLAPSAAGLLAISVGEGWSECLVWLRPELRLEVAWGGATPDQAKDDLGPRHSFDTYLEEKRGYAEPWHPGEIEEAQDLRDTLTGALGERLSVIRDLNRALTQSNAEWRQYGFVISHHMQEPVRLISQFAELLTRQPRAQDGSPDSPQTERITGFLLRETSRLRSLTQDLHTYTALLSAPPPVRRPTPLGRVVDDVLQDLEPRIADTGASIEVAPELPVIAADAGLLRDLLLHLIGNALTFGGPEPRIAVRTERQGAGWSIAVSDQGAGIAPEYQERIFLLFQRLGSLDEALGNGLGLPLCRKIAELHGGTLTVESAPGEGSTFRCWLPDAGPLPGAADA
modifications: biliverdin IXα covalently linked to a conserved cysteine (holoprotein)
notes: Deinococcus radiodurans strain R1 bacteriophytochrome DrBphP, full length; source: E. coli BL21 (DE3), purified (Ni-NTA, SEC)

For data set [1], the target named is DrPSMRE (DrPSM E306R/R310E) (Deinococcus radiodurans strain R1). Put plainly: ITC; MicroCal PEAQ-ITC, 25 °C, darkness (Pr state), 30 mM Tris/HCl, 150 mM NaCl, pH 8.0; cell 9 to 18 μM, syringe 100 to 280 μM; single-site fit; individual components injected into buffer and vice versa as background.
For data set [2] the target is unchanged. Described as above. The source holds these as a separate data set.
For data set [3], the target named is DrPSMRR (DrPSM E148R/E306R) (Deinococcus radiodurans strain R1). Described as above.
Data set [4] shares this target. Described as above. The source holds these as a separate data set.
Data set [5] concerns the molecule itself. Put plainly: SEC; HPLC, bioZen 1.8 μm SEC-3 column, 30 mM Tris/HCl, 150 mM NaCl, pH 8.0 with 10% acetonitrile, 25 °C; full-length DrBphP and DrF1 variants and mixtures. A general note: In gel filtration, larger molecules generally elute earlier.
The target in data set [6] is B1. The data set is described as above. The conditions noted are these: both partners purified.

Usually Kd stands for the constant that tells how readily two partners part at equilibrium. High values mean lower affinity, low ones higher affinity. What is called stoichiometry N is a count of units in the complex or per binding partner.

Where two headings read alike, the source gives them in different places.

Consider “DrPSMER (DrPSM R141E/E148R) (domain or fragment)”, for which the figures for the Kd in data set [1] and in data set [2] were 0.8 µM and 0.012 µM, respectively. For the same molecule, the stoichiometry N in data set [2] amounted to 1.
On to “DrPSMEE (DrPSM R141E/R310E) (domain or fragment)”, for which the Kd worked out at 0.012 µM in data set [3] and 0.8 µM in data set [4]. This molecule showed a stoichiometry N in data set [4] of 1.
Consider B1, for which, in data set [5], the binding result was “binds”.

B2: Full-length phytochrome from Deinococcus radiodurans strain R1 (DrBphP), wild type (natural protein)
chain: MSRDPLPFFPPLYLGGPEITTENCEREPIHIPGSIQPHGALLTADGHSGEVLQMSLNAATFLGQEPTVLRGQTLAALLPEQWPALQAALPPGCPDALQYRATLDWPAAGHLSLTVHRVGELLILEFEPTEAWDSTGPHALRNAMFALESAPNLRALAEVATQTVRELTGFDRVMLYKFAPDATGEVIAEARREGLHAFLGHRFPASDIPAQARALYTRHLLRLTADTRAAAVPLDPVLNPQTNAPTPLGGAVLRATSPMHMQYLRNMGVGSSLSVSVVVGGQLWGLIACHHQTPYVLPPDLRTTLEYLGRLLSLQVQVKEAADVAAFRQSLREHHARVALAAAHSLSPHDTLSDPALDLLGLMRAGGLILRFEGRWQTLGEVPPAPAVDALLAWLETQPGALVQTDALGQLWPAGADLAPSAAGLLAISVGEGWSECLVWLRPELRLEVAWGGATPDQAKDDLGPRHSFDTYLEEKRGYAEPWHPGEIEEAQDLRDTLTGALGERLSVIRDLNRALTQSNAEWRQYGFVISHHMQEPVRLISQFAELLTRQPRAQDGSPDSPQTERITGFLLRETSRLRSLTQDLHTYTALLSAPPPVRRPTPLGRVVDDVLQDLEPRIADTGASIEVAPELPVIAADAGLLRDLLLHLIGNALTFGGPEPRIAVRTERQGAGWSIAVSDQGAGIAPEYQERIFLLFQRLGSLDEALGNGLGLPLCRKIAELHGGTLTVESAPGEGSTFRCWLPDAGPLPGAADA
modifications: biliverdin IXα covalently linked to a conserved cysteine (holoprotein)
notes: Deinococcus radiodurans strain R1 bacteriophytochrome DrBphP, full length (PSM and histidine kinase module); also called DrBphPWT; source: E. coli BL21 (DE3), purified (Ni-NTA, SEC)
For the molecule B2, the binding result in data set [5] is “binds”.

B3: DrBphPRE (full-length DrBphP E306R/R310E) (natural protein)
chain: MSRDPLPFFPPLYLGGPEITTENCEREPIHIPGSIQPHGALLTADGHSGEVLQMSLNAATFLGQEPTVLRGQTLAALLPEQWPALQAALPPGCPDALQYRATLDWPAAGHLSLTVHRVGELLILEFEPTEAWDSTGPHALRNAMFALESAPNLRALAEVATQTVRELTGFDRVMLYKFAPDATGEVIAEARREGLHAFLGHRFPASDIPAQARALYTRHLLRLTADTRAAAVPLDPVLNPQTNAPTPLGGAVLRATSPMHMQYLRNMGVGSSLSVSVVVGGQLWGLIACHHQTPYVLPPDLRTTLRYLGELLSLQVQVKEAADVAAFRQSLREHHARVALAAAHSLSPHDTLSDPALDLLGLMRAGGLILRFEGRWQTLGEVPPAPAVDALLAWLETQPGALVQTDALGQLWPAGADLAPSAAGLLAISVGEGWSECLVWLRPELRLEVAWGGATPDQAKDDLGPRHSFDTYLEEKRGYAEPWHPGEIEEAQDLRDTLTGALGERLSVIRDLNRALTQSNAEWRQYGFVISHHMQEPVRLISQFAELLTRQPRAQDGSPDSPQTERITGFLLRETSRLRSLTQDLHTYTALLSAPPPVRRPTPLGRVVDDVLQDLEPRIADTGASIEVAPELPVIAADAGLLRDLLLHLIGNALTFGGPEPRIAVRTERQGAGWSIAVSDQGAGIAPEYQERIFLLFQRLGSLDEALGNGLGLPLCRKIAELHGGTLTVESAPGEGSTFRCWLPDAGPLPGAADA
modifications: biliverdin IXα covalently linked to a conserved cysteine (holoprotein)
notes: as for B1
On to B3, for which the binding result in data set [5] is given as “binds”.

B4: DrBphPEE (full-length DrBphP R141E/R310E) (natural protein)
chain: MSRDPLPFFPPLYLGGPEITTENCEREPIHIPGSIQPHGALLTADGHSGEVLQMSLNAATFLGQEPTVLRGQTLAALLPEQWPALQAALPPGCPDALQYRATLDWPAAGHLSLTVHRVGELLILEFEPTEAWDSTGPHALENAMFALESAPNLRALAEVATQTVRELTGFDRVMLYKFAPDATGEVIAEARREGLHAFLGHRFPASDIPAQARALYTRHLLRLTADTRAAAVPLDPVLNPQTNAPTPLGGAVLRATSPMHMQYLRNMGVGSSLSVSVVVGGQLWGLIACHHQTPYVLPPDLRTTLEYLGELLSLQVQVKEAADVAAFRQSLREHHARVALAAAHSLSPHDTLSDPALDLLGLMRAGGLILRFEGRWQTLGEVPPAPAVDALLAWLETQPGALVQTDALGQLWPAGADLAPSAAGLLAISVGEGWSECLVWLRPELRLEVAWGGATPDQAKDDLGPRHSFDTYLEEKRGYAEPWHPGEIEEAQDLRDTLTGALGERLSVIRDLNRALTQSNAEWRQYGFVISHHMQEPVRLISQFAELLTRQPRAQDGSPDSPQTERITGFLLRETSRLRSLTQDLHTYTALLSAPPPVRRPTPLGRVVDDVLQDLEPRIADTGASIEVAPELPVIAADAGLLRDLLLHLIGNALTFGGPEPRIAVRTERQGAGWSIAVSDQGAGIAPEYQERIFLLFQRLGSLDEALGNGLGLPLCRKIAELHGGTLTVESAPGEGSTFRCWLPDAGPLPGAADA
modifications: biliverdin IXα covalently linked to a conserved cysteine (holoprotein)
notes: as for B1
With B4, the binding result in data set [6] is on record as “binds”.
